Measured values from PMC7665024, “Anti-apoptotic BCL-2 regulation by changes in dynamics of its long unstructured loop” (Communications Biology, 2020).

Columns and labels:
[1] = test system: BCL-2 EEE (T69E/S70E/S87E; EEE-PB); test: FRET association with Pacific Blue-labeled BCL-2 EEE; conditions: Fig. 1d
[2] = test system: BAX-induced MOMP, isolated mitochondria; test: In vitro cytochrome c release assay, isolated mitochondria (BCL-2 mutants); assay type: biochemical, mouse; conditions: Bax+BimBH3 = 100, mean of n = 6
Source text: To verify this implication, we performed in vitro cytochrome c release assay using isolated mitochondria. […] Lane 3 (Fig. 2a) is a positive control for the cytochrome c release assays. […] (More experimental results in support of the observed BCL-2 activity are given in Supplementary Fig. 3.)
Fig. 2 In vitro assays for evaluating BCL-2 activity. a Cytochrome c release assay with various BCL-2 mutants at varying concentrations. All of the release amounts are normalized to the result caused by the BimBH3-induced BAX activation (lane 3). […] GUVs provide a MOM-like environment devoid of endogenous mitochondrial proteins.
A Dounce homogenizer was used with 20 strokes to homogenize mouse liver tissue (0.2 mg). The mitochondria fraction was separated using centrifugation according to the Mitochondria Isolation Kit (Thermo Scientific). Mitochondria Assay Buffer A (MAB A) (200 mM mannitol, 68 mM sucrose, 10 mM HEPES, 110 mM KCl, 1 mM EDTA, […], 0.1% BSA, protease inhibitor) was used to wash the mitochondria fraction, followed by centrifugation at 12,000 × g. The pellet was collected and resuspended using enough MAB B (i.e., MBA A without 0.1% BSA) and then quantified by bradford assay (Bio-Rad) to yield a final protein content of the mitochondrial fraction ~3 mg/mL. The final mitochondria fraction was placed on ice for further downstream processing or stored at −80 °C with additional 300 mM trehalose for future use[38]. […] The mixture was then incubated with BAX (0.1 μM) and 10 μL of the mitochondrial fraction ([…]) for 0.5 h at 37 °C. Final volume was adjusted to 30 μL. Following centrifugation at 12,000×g for 10 min, the supernatant was subjected to subsequent immunoblotting (IB). Quantification of IB was done using ImageJ software (version 1.49, NIH). The fraction of cytochrome c released (%) is calculated by (I–I0)/(Imax–I0)×100%, where Imax and I0 are the analyzed intensities of cytochrome c with and without activated BAX, respectively.
Samples were resolved by SDS–PAGE (15%) and electroblotted onto a 0.45 μm PVDF membrane (GE Healthcare). Primary antibodies used in this study included rabbit anti-BAX N20 (Santa Cruz Biotechnology), mouse anti-BCL-2(C2) (Santa Cruz Biotechnology) and mouse anti-cytochrome c antibodies (clone 7H8.2C12, Millipore). Detection was achieved using sheep anti-mouse IgG HRP (GE Healthcare) and donkey anti-rabbit IgG HRP (GE Healthcare) secondary antibodies. Proteins were visualized by 4CN Plus Chromogenic Substrate (PerkinElmer).

trypsin = test: Limited proteolysis by trypsin; conditions: BCL-2 20 μM, trypsin 0.04-9.44 μM, 1 h, room temperature, SDS-PAGE
Description: Fig. 3 Structural differences between WT and EEE. a An illustration of mutation sites prepared for spin-labeling ESR studies. b Distance distributions of various double-spin-labeled BCL-2 (WT or EEE) mutants are determined from the experimental DEER data. […] As highlighted, the displacements of α1 and α2 account for the major differences. d An illustration highlighting the positions of α2–α7 and the binding groove. Structures of WT and EEE are colored as in c. Helices α4–α7 change little between the WT and EEE. The displacement of α2 is critical to the change in the local environment of the binding groove. e Limited proteolysis of BCL-2 (20 μM) analyzed on SDS–PAGE. Trypsin concentrations were 0.04, 0.11, 0.34, 1.03, 3.11, 9.44 μM. Incubation time was 1 h at room temperature. It confirms that tertiary conformations of WT versus EEE are indeed different.
BCL-2 conformational change was assessed by limited proteolysis using trypsin (MERCK). In brief, 5 µg BCL-2 (WT or EEE) was digested at enzyme/substrate ratios ranging from 1:2 to 1:461 for 1 h at room temperature. Proteolysis was quenched by adding 1 mM PMSF, and then samples were confirmed by SDS–PAGE with Coomassie blue staining.

BAX [3] = test: FRAP-GUV pore-forming activity of BAX, 10-kDa F-dextran; assay type: biochemical, mouse; parameters: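 unitless ratio D/D0 relative to diffusion coefficient after Triton X-100 disruption of GUVs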; conditions: 10 kDa F-dextran
Description: (§1) Briefly, GUVs were incubated with the proteins of interest over a period of time (Fig. 2c), followed by photobleaching within individual GUVs. A series of fluorescent images were collected over time after the photobleaching and then analyzed to yield the diffusion coefficients of Fluor molecules (including FITC-labeled 70-kDa, and Alexa-647-labeled 10-kDa probes) using the theoretical approach detailed in the “Methods” section. As Fluor molecules are homogeneously dispersed in the solution (outside and inside of GUVs) before the incubation with BAX and activators, it is reasonable to expect that the larger the induced pore area on the surface of a GUV, the greater the diffusion coefficient. Thus, the diffusion coefficient is directly related to the pore-forming activity of activated BAX. As the pore-forming activity is proportional to the concentration of BAX[18], we fixed the total amount of added BAX in all of the measurements below (see the “Methods” section).
(§2) Full-length BAX and variants were prepared as previously described[18],[22],[35]. Mouse BAX was cloned into pTYB1 vector (New England Biolabs, Inc.), resulting pTYB1-BAX construct. The pTYB1-BAX construct encoding a fusion protein of BAX with chitin-binding peptide was separated by a self-cleavable intein tag to obtain a full-length BAX. Wild-type BAX has two native cysteine residues at 62 and 126. Cysteine-free construct (C62S/C126S) was used to prepare single-cysteine BAX variants for conjugating fluorescence probes (e.g., BAX136C in Fig. 1d). Point mutations of recombinant BAX were generated using a QuikChange mutagenesis kit. Proteins were expressed in E. coli (ER2566) strain (New England Biolabs, Inc.) and purified without detergent. Bacterial cultures were grown at 37 °C in LB medium containing 0.1 g/L ampicillin to reach an OD600 of 1.0. BAX expression was induced by addition of 0.3 mM IPTG at 30 °C for 6−8 h. The cells were harvested by centrifugation and resuspended in ice-cold lysis buffer (20 mM Tris–HCl, pH 7.0, 500 mM NaCl and 1 mM PMSF). The resuspended pellet was sonicated on ice for 30 min, followed by centrifugation at 12,800 × g for 50 min. […] The resins were incubated in a pre-equilibrated buffer (20 mM sodium phosphate, pH 8.0, 100 mM NaCl, 60 mM dithiothreitol (DTT)) for 48 h. Proteins were eluted from column and further purified by a SEC using a HiLoad 16/60 Superdex 75 column (GE Healthcare) pre-equilibrated in PB buffer (20 mM sodium phosphate, pH 7.4, 100 mM NaCl). Purified proteins were confirmed by SDS–PAGE with Coomassie blue staining. Protein concentration was determined using absorption spectroscopy at 280 nm.
(§3) All lipids used were purchased from Avanti Polar Lipids. […] Texas Red 1,2-dihexadecanoyl-sn-glycero-3-phosphoethanolamine (TR-DPPE) (Invitrogen) of 0.05% was added to the lipid mixture for virtualization of GUV[18],[26],[27]. GUVs were prepared with the gel-assisted swelling on a polyvinyl alcohol (PVA) gel[39]. A 5% (w/w) solution of PVA (MW 145,000) was prepared by stirring PVA in ddH2O while heating at 90 °C. PVA solution was spread on a microscope coverslip (18 × 18 mm, Matsunami, Japan) and then dried at 50 °C. Lipid mixture (1 mg/mL) dissolved in chloroform were spread on the dry PVA film and placed under vacuum for 30 min to evaporate the solvent. Lipids were rehydrated for 1 h in PB buffer. The resulting GUVs were transferred to an Eppendorf tube using blunt tips.
(§4) FRAP measurements were performed as described previously. […] All reactions were at room temperature and the final volume was 200 μL.

BAX [4] = test: FRAP-GUV pore-forming activity of BAX, 70-kDa F-dextran; assay type: biochemical, mouse; parameters: FRAP pore-forming activity / FRAP pore-forming activity, average / p (FRAP-70k-p), Average: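 unitless ratio D/D0 relative to diffusion coefficient after Triton X-100 disruption of GUVs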
Description: as §1, §2, §3, §4

Molecule: BimBH3-AL488: BimBH3 peptide labeled with Alexa Fluor 488 at C-terminal cysteine (FRET acceptor)
- molecular association with EEE compared with S70E or WT (in words) [1]: associated with EEE-PB more potently than with S70E-PB or WT-PB

Molecule: S70E: less potent phosphomimetic mutant S70E of TM-truncated BCL-2
- Cytochrome c release, Average ([2]; BAX+BimBH3 + 2uM BCL-2 protein): 76.6421
- Cytochrome c release, Average ([2]; BAX+BimBH3 + 4uM BCL-2 protein): 24.3731
- Cytochrome c release, Average ([2]; BAX+BimBH3 + 6uM BCL-2 protein): 15.7119

Molecule: WT: TM-truncated wild-type human BCL-2 (BCL-2-ΔTM, residues 1–217, C-terminal His6-tag)
- susceptibility to trypsin proteolysis (in words) (trypsin): susceptible to proteolysis and rapidly degraded to fragments
- Cytochrome c release, Average ([2]; BAX+BimBH3 + 2uM BCL-2 protein): 77.3682
- Cytochrome c release, Average ([2]; BAX+BimBH3 + 4uM BCL-2 protein): 50.0022
- Cytochrome c release, Average ([2]; BAX+BimBH3 + 6uM BCL-2 protein): 21.4104

B1: EEE-PB: EEE labeled with Pacific Blue (FRET donor) (conjugate)
chain: MAHAGRTGYDNREIVMKYIHYKLSQRGYEWDAGDVGAAPPGAAPAPGIFSSQPGHTPHPAASRDPVAREEPLQTPAAPGAAAGPALEPVPPVVHLTLRQAGDDFSRRYRRDFAEMSSQLHLTPFTARGRFATVVEELFRDGVNWGRIVAFFEFGGVMCVESVNREMSPLVDNIALWMTEYLNRHLHTWIQDNGGWDAFVELYGPSMRPLFDFSWLSL
modifications: Pacific Blue (maleimide) on the native cysteine 158; left off: His6, C-terminal, state not stated
- FRAP pore-forming activity, average (BAX [3]; mean of trials): 0.001441
- FRAP pore-forming activity (BAX [3]; trial1): 0.0008772
- FRAP pore-forming activity (BAX [3]; trial2): 0.0007018
- FRAP pore-forming activity (BAX [3]; trial3): 0.0003509
- FRAP pore-forming activity (BAX [3]; trial4): 0.0008772
- FRAP pore-forming activity (BAX [3]; trial5): 0.001228
- FRAP pore-forming activity (BAX [3]; trial6): 0.0007018
- FRAP pore-forming activity (BAX [3]; trial7): 0.001228
- FRAP pore-forming activity (BAX [3]; trial8): 0.002456
- FRAP pore-forming activity (BAX [3]; trial9): 0.002807
- FRAP pore-forming activity (BAX [3]; trial10): 0.001579
- FRAP pore-forming activity (BAX [3]; trial11): 0.002105
- FRAP pore-forming activity (BAX [3]; trial12): 0.001404
- FRAP pore-forming activity (BAX [3]; trial13): 0.001579
- FRAP pore-forming activity (BAX [3]; trial14): 0.002281
- pore-forming activity / effect on BAX-induced membrane pores on GUV (in words) (BAX [4]; 10- and 70-kDa F-dextran, BAX 1 µM, BimBH3 2 µM, BCL-2 1 µM, ABT-199 30 µM, room temperature, Fig. 2c): The ability of EEE to sequester BimBH3 is similar to that of EEE-PB
- FRAP pore-forming activity, average (BAX [4]; 70 kDa F-dextran, mean of trials): 0.000389
- FRAP pore-forming activity (BAX [4]; 70 kDa F-dextran, trial1): 0.00033
- FRAP pore-forming activity (BAX [4]; 70 kDa F-dextran, trial2): 0.000165
- FRAP pore-forming activity (BAX [4]; 70 kDa F-dextran, trial3): 0.000165
- FRAP pore-forming activity (BAX [4]; 70 kDa F-dextran, trial4): 0.00033
- FRAP pore-forming activity (BAX [4]; 70 kDa F-dextran, trial5): 0.00033
- FRAP pore-forming activity (BAX [4]; 70 kDa F-dextran, trial6): 0.000165
- FRAP pore-forming activity (BAX [4]; 70 kDa F-dextran, trial7): 0.00033
- FRAP pore-forming activity (BAX [4]; 70 kDa F-dextran, trial8): 0.0006601
- FRAP pore-forming activity (BAX [4]; 70 kDa F-dextran, trial9): 0.0008251
- FRAP pore-forming activity (BAX [4]; 70 kDa F-dextran, trial10): 0.000495
- FRAP pore-forming activity (BAX [4]; 70 kDa F-dextran, trial11): 0.000495
- FRAP pore-forming activity (BAX [4]; 70 kDa F-dextran, trial12): 0.00033
- FRAP pore-forming activity (BAX [4]; 70 kDa F-dextran, trial13): 0.00033
- FRAP pore-forming activity (BAX [4]; 70 kDa F-dextran, trial14): 0.000495
